Experimental data reported in IntAct's records for PubMed 26211610.

B1: Translation initiation factor eIF2 assembly protein (Saccharomyces cerevisiae), Q05791 (parent)
chain: MSSQEYTTFIDIPVTRAQVEHCSYSFWSSLYPKYVPKSIVLKSLPKKFIQYLEQDGIKLPQEENSRSVYTEEIIRNEDNDYSDWEDDEDTATEFVQEVEPLIDFPELHQKLKDALNELGAVAPKLNWSAPRDATWILPNNTMKCNEVNELYLLLNASNYIMHDLQRAFKGCVDGDDIKGLKFDLVLRQWCDMNPALEFRVFVKNAHIVGATQRDLNYYDYLDELSDTFKDLIDEIVHDVVLPKFPDKSFVLDVYIPRPFNKIFIVDINPFARKTDSLLFSWNEIAAIAPPKNDVEDYELRLVTRHNTGRFASKEHSENHVPQDLVEASLNPEAIRELTQKWKELLSQQAKEESSDSENET

Variants of: B1
Settings: with if2g_yeast GCD11, P32481
if2g_yeast GCD11, P32481, sequence (P32481 whole entry): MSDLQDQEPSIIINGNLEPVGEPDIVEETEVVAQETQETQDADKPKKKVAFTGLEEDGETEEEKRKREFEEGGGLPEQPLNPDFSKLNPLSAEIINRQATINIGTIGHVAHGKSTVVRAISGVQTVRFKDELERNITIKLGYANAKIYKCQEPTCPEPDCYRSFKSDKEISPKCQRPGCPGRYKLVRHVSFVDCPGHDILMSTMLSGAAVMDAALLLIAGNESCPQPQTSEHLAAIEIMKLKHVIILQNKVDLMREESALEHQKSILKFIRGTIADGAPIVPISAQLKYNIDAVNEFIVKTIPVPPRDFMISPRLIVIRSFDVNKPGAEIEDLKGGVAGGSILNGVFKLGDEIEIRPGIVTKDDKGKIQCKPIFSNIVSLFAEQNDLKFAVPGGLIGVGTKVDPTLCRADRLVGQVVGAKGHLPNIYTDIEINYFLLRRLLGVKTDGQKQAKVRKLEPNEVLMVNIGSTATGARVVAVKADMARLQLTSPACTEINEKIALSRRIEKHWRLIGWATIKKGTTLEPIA

Variant	effect of a mutation on the interaction
D266A;I267A;N268A	decreasing interaction strength
